Where two headings read alike, the source gives them in different places.
Experiments:
[1] = biological target: spike of SARS-CoV-2 Eng20 (WT) (SARS-CoV-2, UniProt P0DTC2 14-1273); experiment: cell-based or functional assay
[2] = biological target: T1, SARS-CoV-1 Spike on pseudovirus (SARS-CoV-1, UniProt P59594 14-1255); experiment: cell-based or functional assay
[3] = biological target: T2, WIV1 Spike on pseudovirus (WIV1 (bat SARS-like coronavirus)); experiment: cell-based or functional assay
[4] = biological target: T1, SARS-CoV-1 Spike on pseudovirus; experiment: cell-based or functional assay; remark: listed apart in the source
[5] = biological target: T2, WIV1 Spike on pseudovirus; experiment: cell-based or functional assay; remark: listed apart in the source
[6] = biological target: T1, SARS-CoV-1 Spike on pseudovirus; experiment: cell-based or functional assay; remark: listed apart in the source
[7] = biological target: T2, WIV1 Spike on pseudovirus; experiment: cell-based or functional assay; remark: listed apart in the source
[8] = biological target: T3, MERS spike trimer (recombinant, negative control) (MERS, UniProt K9N5Q8 18-1296); experiment: SPR, Fab over anti-His-captured trimer, 25 C
T3 sequence: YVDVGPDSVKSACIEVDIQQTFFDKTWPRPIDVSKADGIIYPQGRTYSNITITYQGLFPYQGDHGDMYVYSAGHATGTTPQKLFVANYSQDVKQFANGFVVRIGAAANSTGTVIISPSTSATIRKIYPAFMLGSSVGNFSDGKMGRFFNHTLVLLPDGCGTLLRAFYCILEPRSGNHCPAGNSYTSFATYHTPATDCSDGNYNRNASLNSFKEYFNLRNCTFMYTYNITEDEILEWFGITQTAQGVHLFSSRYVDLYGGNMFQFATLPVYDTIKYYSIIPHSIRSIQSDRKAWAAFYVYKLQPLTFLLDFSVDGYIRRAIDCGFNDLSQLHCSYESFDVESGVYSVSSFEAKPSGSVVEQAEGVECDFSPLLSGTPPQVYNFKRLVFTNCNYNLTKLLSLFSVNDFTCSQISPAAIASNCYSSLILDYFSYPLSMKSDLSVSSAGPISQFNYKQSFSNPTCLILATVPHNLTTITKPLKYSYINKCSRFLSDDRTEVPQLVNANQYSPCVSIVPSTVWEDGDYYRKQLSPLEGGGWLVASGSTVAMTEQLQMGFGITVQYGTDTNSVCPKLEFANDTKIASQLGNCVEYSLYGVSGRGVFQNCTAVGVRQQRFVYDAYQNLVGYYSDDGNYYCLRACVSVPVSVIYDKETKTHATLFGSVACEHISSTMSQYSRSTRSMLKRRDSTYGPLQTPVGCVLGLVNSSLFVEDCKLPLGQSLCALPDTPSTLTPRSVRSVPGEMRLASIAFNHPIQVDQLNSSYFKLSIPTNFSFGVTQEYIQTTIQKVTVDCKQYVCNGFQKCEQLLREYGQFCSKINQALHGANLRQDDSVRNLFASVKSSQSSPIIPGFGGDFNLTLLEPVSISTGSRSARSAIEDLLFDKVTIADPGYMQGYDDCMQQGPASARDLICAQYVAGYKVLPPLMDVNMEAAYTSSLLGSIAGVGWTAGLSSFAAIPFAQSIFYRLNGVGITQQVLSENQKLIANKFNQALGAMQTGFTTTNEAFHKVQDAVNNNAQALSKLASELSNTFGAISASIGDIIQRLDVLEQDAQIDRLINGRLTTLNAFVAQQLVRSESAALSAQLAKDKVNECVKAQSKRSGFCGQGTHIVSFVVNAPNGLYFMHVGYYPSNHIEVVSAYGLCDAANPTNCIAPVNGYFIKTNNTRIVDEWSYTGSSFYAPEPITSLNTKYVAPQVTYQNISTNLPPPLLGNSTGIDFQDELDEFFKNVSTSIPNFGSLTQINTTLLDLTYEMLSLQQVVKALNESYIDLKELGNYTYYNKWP

B1: bebtelovimab (antibody, V domains shown)
VH: QITLKESGPTLVKPTQTLTLTCTFSGFSLSISGVGVGWLRQPPGKALEWLALIYWDDDKRYSPSLKSRLTISKDTSKNQVVLKMTNIDPVDTATYYCAHHSISTIFDHWGQGTLVTVSS
VL: QSALTQPASVSGSPGQSITISCTATSSDVGDYNYVSWYQQHPGKAPKLMIFEVSDRPSGISNRFSGSKSGNTASLTISGLQAEDEADYYCSSYTTSSAVFGGGTKLTVLG
EC50, live virus neutralization [1]: 0.0016 µg/mL

B2: Reference Antibody (antibody, V domains shown)
VH: EVQLVESGAEVKKPGESLKISCKGSGYTFTRYWIGWVRQMPGKGLEWMGIIYPGDSDTRYSPSFQGHVTISADKSISTAYLQWNSLKASDTAMYYCARLPQYCSNGVCQRWFDPWGQGTLVTVSS
VL: EIVLTQSPSSVSASVGDRVTITCRASQGISSWLAWYQQKPGKAPKLLIYAASSLQSGVPSRFSGSGSGTDFTLTISSLQPEDFATYYCQQGNSFPYTFGQGTNLEIK
IC50, pseudovirus neutralization [2]: 0.244 µg/mL | IC50, pseudovirus neutralization [3]: 0.473 µg/mL | IC50, pseudovirus neutralization [4]: 0.0352 µg/mL | IC50, pseudovirus neutralization [5]: 0.0196 µg/mL | % neutralization at 4.5 µg/ml, pseudovirus [6]: 94.3% | % neutralization at 4.5 µg/ml, pseudovirus [7]: 97.6%

B3: AB-1 Fab (Fab, V domains shown)
VH: EVQLVESGAEVKKPGESLKISCKGSGYTFTRYWIGWVRQMPGKGLEWMGIIYPGDSDVRYSPSFQGHVTISADKSISTAYLQWNSLKASDTAMYYCARLPQYCSKGVCYRWFDPWGQGTLVTVSS
VL: EIVLTQSPSSVSASVGDRVTITCRASQGISSWLAWYQQKPGKAPKLLIYAASSLQSGVPSRFSGSGSGTDFTLTISSLQPEDFATYYCQQGHSFPYTFGQGTNLEIK
binding result [8]: no binding (tested: 600 nM highest Fab concentration)

B4: Reference Antibody Fab (Fab, V domains shown)
VH: EVQLVESGAEVKKPGESLKISCKGSGYTFTRYWIGWVRQMPGKGLEWMGIIYPGDSDTRYSPSFQGHVTISADKSISTAYLQWNSLKASDTAMYYCARLPQYCSNGVCQRWFDPWGQGTLVTVSS
VL: EIVLTQSPSSVSASVGDRVTITCRASQGISSWLAWYQQKPGKAPKLLIYAASSLQSGVPSRFSGSGSGTDFTLTISSLQPEDFATYYCQQGNSFPYTFGQGTNLEIK
binding result [8]: no binding (tested: 600 nM highest Fab concentration)

Reference: patent US20230357367A1 (GENERATE BIOMEDICINES, published 2023)
